B1: GpH7-A5/GpH7-B3 variant Y300_09D/GpL16-k0 (antibody, human IgG1, kappa)
heavy 1: not shown
heavy 2: not shown
light: DIVMTQSPLSLPVTPGEPASISCQASESLVHSNRNTYLHWYLQKPGQSPQLLIYKVSNRFSGVPDRFSGSGSGTDFTLKISRVEAEDVGVYYCSQNTHVPPTFGQGTKVEIERTVAAPSVFIFPPSDEQLKSGTASVVCLLNNFYPREAKVQWKVDNALQSGNSQESVTEQDSKDSTYSLSSTLTLSKADYEKHKVYACEVTHQGLSSPVTKSFNRGEC
notes: heterodimerized IgG1, one H chain mutated; also called He Ab
B2: GpH7-B3 variant Y300_01G/GpL16-k0 (antibody, human IgG1, kappa)
heavy: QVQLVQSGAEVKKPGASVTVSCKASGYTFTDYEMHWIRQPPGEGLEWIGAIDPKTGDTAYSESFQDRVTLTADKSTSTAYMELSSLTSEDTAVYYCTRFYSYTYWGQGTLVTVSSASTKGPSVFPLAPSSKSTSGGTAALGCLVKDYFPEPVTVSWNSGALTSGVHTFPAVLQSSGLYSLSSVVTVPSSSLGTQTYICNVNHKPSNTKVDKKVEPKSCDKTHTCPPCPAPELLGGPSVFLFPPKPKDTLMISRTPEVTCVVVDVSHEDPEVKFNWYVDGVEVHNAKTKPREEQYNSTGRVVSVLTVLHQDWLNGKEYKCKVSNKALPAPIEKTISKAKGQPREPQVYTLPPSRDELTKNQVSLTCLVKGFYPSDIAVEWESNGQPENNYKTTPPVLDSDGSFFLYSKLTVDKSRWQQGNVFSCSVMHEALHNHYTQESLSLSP
light: B1 light
notes: homodimerized IgG1; mutation in both H chains; also called Ho Ab
B3: GpH7-A5/GpH7-B3 variant Y300_01G/GpL16-k0 (antibody, human IgG1, kappa)
heavy 1: not shown
heavy 2: not shown
light: B1 light
notes: heterodimerized IgG1; mutation in one H chain only; also called He Ab
B4: GpH7-B3 variant Y296_06M/GpL16-k0 (antibody, human IgG1, kappa)
heavy: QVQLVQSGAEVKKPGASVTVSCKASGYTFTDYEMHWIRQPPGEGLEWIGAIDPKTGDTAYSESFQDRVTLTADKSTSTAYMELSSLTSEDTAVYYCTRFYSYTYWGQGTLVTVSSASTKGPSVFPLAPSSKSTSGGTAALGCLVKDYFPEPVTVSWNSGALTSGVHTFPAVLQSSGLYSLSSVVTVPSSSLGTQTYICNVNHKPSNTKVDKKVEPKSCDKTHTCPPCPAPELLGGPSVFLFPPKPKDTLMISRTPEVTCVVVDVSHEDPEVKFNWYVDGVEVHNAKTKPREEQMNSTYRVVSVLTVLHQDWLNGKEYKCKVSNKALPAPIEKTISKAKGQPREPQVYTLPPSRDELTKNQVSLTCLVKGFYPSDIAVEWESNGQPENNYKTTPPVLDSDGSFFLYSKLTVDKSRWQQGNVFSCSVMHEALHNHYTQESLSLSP
light: B1 light
notes: as for B2
B5: GpH7-A5/GpH7-B3 variant T335_16H/GpL16-k0 (antibody, human IgG1, kappa)
heavy 1: not shown
heavy 2: not shown
light: B1 light
notes: as for B3
B6: GpH7-A5/GpH7-B3 variant T335_20W/GpL16-k0 (antibody, human IgG1, kappa)
heavy 1: not shown
heavy 2: not shown
light: B1 light
notes: as for B3
B7: GpH7-B3 variant T335_19Q/GpL16-k0 (antibody, human IgG1, kappa)
heavy: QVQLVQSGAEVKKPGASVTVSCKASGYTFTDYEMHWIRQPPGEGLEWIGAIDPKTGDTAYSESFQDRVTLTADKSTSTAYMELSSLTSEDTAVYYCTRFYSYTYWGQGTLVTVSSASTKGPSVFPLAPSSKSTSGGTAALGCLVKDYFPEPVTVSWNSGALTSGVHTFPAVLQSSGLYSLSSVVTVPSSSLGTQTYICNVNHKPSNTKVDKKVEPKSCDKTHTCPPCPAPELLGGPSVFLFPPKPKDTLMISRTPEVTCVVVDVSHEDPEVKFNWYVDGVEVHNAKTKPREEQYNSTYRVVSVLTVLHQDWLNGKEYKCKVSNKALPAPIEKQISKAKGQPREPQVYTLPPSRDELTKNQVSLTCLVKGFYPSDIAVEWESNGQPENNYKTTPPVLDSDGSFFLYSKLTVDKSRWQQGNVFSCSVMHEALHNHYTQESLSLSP
light: B1 light
notes: as for B2
B8: GpH7-A5/GpH7-B3 variant Y300_13S/GpL16-k0 (antibody, human IgG1, kappa)
heavy 1: not shown
heavy 2: not shown
light: B1 light
notes: as for B1
B9: GpH7-B3 variant Y300_08L/GpL16-k0 (antibody, human IgG1, kappa)
heavy: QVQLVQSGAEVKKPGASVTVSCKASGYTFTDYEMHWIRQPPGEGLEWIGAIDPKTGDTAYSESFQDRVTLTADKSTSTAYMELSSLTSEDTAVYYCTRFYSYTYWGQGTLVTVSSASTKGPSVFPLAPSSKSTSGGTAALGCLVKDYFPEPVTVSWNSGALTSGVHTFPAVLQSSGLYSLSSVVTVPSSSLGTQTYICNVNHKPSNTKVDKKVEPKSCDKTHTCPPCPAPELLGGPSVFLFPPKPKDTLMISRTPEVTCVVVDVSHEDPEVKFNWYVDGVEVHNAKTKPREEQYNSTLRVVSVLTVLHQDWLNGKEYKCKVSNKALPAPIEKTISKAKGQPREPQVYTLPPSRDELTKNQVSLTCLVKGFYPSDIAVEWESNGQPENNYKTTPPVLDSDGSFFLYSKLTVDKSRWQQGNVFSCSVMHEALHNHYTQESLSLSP
light: B1 light
notes: as for B2
B10: GpH7-B3 variant T335_20W/GpL16-k0 (antibody, human IgG1, kappa)
heavy: not shown
light: B1 light
notes: as for B2
B11: GpH7-B3 variant Y300_11K/GpL16-k0 (antibody, human IgG1, kappa)
heavy: not shown
light: B1 light
notes: as for B2
B12: GpH7-B3 variant Y296_14T/GpL16-k0 (antibody, human IgG1, kappa)
heavy: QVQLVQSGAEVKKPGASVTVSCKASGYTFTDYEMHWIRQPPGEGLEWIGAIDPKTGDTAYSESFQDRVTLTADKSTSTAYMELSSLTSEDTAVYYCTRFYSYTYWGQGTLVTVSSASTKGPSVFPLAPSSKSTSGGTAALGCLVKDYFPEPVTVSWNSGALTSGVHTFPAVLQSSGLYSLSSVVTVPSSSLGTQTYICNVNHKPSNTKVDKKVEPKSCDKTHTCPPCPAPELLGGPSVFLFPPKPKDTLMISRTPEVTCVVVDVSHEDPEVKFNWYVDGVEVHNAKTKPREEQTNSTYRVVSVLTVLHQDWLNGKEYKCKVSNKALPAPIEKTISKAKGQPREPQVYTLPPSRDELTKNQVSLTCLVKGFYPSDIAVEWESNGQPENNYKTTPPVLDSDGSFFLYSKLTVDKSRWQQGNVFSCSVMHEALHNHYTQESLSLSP
light: B1 light
notes: as for B2
B13: GpH7-B3 variant Y296_13S/GpL16-k0 (antibody, human IgG1, kappa)
heavy: not shown
light: B1 light
notes: as for B2
B14: GpH7-A5/GpH7-B3 variant L328_11K/GpL16-k0 (antibody, human IgG1, kappa)
heavy 1: not shown
heavy 2: not shown
light: B1 light
notes: He Ab: heterodimerized anti-glypican-3 IgG1, substitution in one H chain only; also called He Ab L328K
B15: GpH7-B3 variant Y300_14T/GpL16-k0 (antibody, human IgG1, kappa)
heavy: not shown
light: B1 light
notes: as for B2
B16: GpH7-A5/GpH7-B3 variant Y296_10E/GpL16-k0 (antibody, human IgG1, kappa)
heavy 1: not shown
heavy 2: not shown
light: B1 light
notes: as for B3
B17: GpH7-B3 variant Y300_13S/GpL16-k0 (antibody, human IgG1, kappa)
heavy: not shown
light: B1 light
notes: as for B2
B18: GpH7-B3 variant Y300_19Q/GpL16-k0 (antibody, human IgG1, kappa)
heavy: not shown
light: B1 light
notes: as for B2
B19: GpH7-B3 variant Y296_19Q/GpL16-k0 (antibody, human IgG1, kappa)
heavy: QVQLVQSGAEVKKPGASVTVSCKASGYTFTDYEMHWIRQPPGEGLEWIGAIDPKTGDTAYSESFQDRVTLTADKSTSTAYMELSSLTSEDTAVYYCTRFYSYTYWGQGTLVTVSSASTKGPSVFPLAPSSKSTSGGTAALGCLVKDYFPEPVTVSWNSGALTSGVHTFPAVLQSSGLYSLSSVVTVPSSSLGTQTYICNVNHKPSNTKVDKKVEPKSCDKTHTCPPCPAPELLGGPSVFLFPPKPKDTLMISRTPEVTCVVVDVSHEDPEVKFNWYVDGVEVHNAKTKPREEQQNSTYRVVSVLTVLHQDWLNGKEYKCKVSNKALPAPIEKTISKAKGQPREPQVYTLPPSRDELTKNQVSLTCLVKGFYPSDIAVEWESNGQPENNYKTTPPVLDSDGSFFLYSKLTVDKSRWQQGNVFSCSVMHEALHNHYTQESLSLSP
light: B1 light
notes: as for B2
B20: GpH7-B3 variant Y300_10E/GpL16-k0 (antibody, human IgG1, kappa)
heavy: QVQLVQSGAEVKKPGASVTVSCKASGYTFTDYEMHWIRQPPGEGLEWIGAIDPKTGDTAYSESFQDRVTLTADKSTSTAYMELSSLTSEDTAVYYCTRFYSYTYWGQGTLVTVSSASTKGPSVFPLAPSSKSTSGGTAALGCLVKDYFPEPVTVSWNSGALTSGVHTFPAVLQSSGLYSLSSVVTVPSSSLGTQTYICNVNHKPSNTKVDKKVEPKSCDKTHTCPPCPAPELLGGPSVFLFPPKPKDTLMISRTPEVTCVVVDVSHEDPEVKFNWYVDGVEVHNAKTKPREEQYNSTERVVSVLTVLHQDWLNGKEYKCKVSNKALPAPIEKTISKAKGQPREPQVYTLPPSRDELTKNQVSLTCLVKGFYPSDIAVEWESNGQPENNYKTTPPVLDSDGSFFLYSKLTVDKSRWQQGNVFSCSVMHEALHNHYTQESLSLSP
light: B1 light
notes: as for B2
B21: GpH7-B3 variant Y296_16H/GpL16-k0 (antibody, human IgG1, kappa)
heavy: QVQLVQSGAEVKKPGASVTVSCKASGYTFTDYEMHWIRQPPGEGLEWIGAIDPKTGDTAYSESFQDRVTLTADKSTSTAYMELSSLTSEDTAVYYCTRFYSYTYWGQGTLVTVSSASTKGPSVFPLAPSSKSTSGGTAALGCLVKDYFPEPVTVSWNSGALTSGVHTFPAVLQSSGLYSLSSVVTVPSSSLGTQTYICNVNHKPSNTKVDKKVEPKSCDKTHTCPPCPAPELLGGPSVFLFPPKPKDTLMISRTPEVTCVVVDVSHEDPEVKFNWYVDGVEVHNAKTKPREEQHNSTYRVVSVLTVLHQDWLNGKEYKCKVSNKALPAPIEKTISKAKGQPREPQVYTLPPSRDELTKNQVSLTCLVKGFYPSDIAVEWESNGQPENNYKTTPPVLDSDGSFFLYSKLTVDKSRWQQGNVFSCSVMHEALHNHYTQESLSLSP
light: B1 light
notes: as for B2
B22: GpH7-B3 variant Y300_09D/GpL16-k0 (antibody, human IgG1, kappa)
heavy: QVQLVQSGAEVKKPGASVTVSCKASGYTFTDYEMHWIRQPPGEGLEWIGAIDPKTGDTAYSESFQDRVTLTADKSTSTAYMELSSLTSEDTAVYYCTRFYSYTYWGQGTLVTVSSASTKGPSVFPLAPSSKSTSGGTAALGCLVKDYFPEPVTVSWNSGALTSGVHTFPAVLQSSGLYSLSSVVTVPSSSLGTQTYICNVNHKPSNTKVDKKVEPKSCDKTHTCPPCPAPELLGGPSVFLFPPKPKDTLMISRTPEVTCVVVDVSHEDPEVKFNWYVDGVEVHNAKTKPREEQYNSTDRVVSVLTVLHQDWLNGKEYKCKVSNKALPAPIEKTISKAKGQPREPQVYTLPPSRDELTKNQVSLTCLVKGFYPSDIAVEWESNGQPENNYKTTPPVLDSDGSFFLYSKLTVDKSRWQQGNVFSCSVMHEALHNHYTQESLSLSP
light: B1 light
notes: as for B2

Assays:
FcγRIa [1] = biological target: T1, FcγRIa (human, UniProt P12314 16-292); assay: SPR (Biacore); He/Con_1a (FcgRIa) divided by He/Con_2b (FcgRIIb)
T1 construct: extracellular domain; also called FcgRI; FcgRIa
Method in brief: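 Capture format: antigen peptide chip holds the antibody, FcγR diluted in HBS-EP+ is the analyte. Temperature 25 °C; regeneration by 10 mM glycine-HCl, pH 1.5.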
T1 sequence (P12314 16-292): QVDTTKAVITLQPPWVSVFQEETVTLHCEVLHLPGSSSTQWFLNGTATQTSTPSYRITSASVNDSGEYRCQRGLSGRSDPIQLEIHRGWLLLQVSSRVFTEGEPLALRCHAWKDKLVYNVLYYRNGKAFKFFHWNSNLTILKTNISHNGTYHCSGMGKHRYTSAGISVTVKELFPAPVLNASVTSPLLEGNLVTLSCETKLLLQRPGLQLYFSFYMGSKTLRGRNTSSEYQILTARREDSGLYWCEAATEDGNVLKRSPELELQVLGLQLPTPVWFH

FcγRIIb = biological target: T2, FcγRIIb (human, UniProt P31994 43-217); assay: SPR (Biacore), relative to GpH7-A5/GpH7-B3/GpL16-k0 = 100
T2 construct: extracellular domain; also called FcgRIIb; 2b
T2 sequence (looked up): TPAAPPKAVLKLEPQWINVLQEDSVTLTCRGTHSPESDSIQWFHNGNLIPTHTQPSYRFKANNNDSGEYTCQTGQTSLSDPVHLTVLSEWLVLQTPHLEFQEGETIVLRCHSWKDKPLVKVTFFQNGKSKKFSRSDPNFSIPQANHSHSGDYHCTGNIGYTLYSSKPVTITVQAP

FcγRIa [2] = biological target: T1, FcγRIa; assay: as above
FcγRIa [3] = biological target: T3, FcγRIa (human, UniProt P12314 16-292); assay: SPR (Biacore), antibody captured on antigen peptide chip, FcγRIa as analyte; relative binding amount
T3 construct: extracellular domain; also called FcgRI; CD64; not shown: C-terminal His tag
Experimental: (§1) Analysis of interaction between objective antibody and the FcγR was carried out using Biacore T100 (GE Healthcare). HBS-EP+ (GE Healthcare) was used as the running buffer, and the measurement temperature was set to 25° C. Chips produced by immobilizing the antigen peptide by the amine coupling method to a Series S Sencor Chip CM5 (GE Healthcare), or alternatively, chips produced by allowing preliminarily biotinylated antigen peptides to interact with and immobilize onto a Series S Sensor Chip SA (certified) (GE Healthcare) were used. Antibodies of interest were captured onto an antigen peptide-immobilized chip, and allowed to interact to each FcγR diluted with running buffer. To regenerate and repeatedly use the chip, the antibodies captured on the chip were washed off by reacting 10 mM glycine-HCl, pH 1.5.
T3 sequence (P12314 16-292): as the sequence (P12314 16-292) above

[4] = biological target: T4, FcγRIa extracellular domain with C-terminal His tag (human, UniProt P12314 16-292); assay: SPR (Biacore); He/Con_1a divided by He/Con_2b (FcγRIIb)
T4 construct: extracellular domain; Soluble receptor expressed in FreeStyle293 cells; analyte in Biacore; also called FcgRI; FcgRIa; not shown: His tag at the C terminus
Experimental: (§2) The heterodimerized antibodies He Abs in which one of the H chains was introduced with an alteration were assayed for their binding activities to each activating FcγR and inhibitory FcγR according to the method described in Example 4. […] The activating FcγRs in FIGS. 26, 27, 28, and 29 are FcγRIa, FcγRIIa (R), FcγRIIa (H), and FcγRIIIa, respectively.
as §1

[5] = biological target: T4, FcγRIa extracellular domain with …; assay: SPR (Biacore), antibody captured on antigen peptide chip, FcγR as analyte; binding relative to GpH7-A5/GpH7-B3/GpL16-k0 = 100
Experimental: as §2, §1

T4 sequence (P12314 16-292): as the sequence (P12314 16-292) above

Binder | Ho/Con_1a (FcγRIa [3]) | further results
B1 |  | Ia/IIb He_1a/2b (FcγRIa [1]): 1.21; He/Con_2b (IIb binding) (FcγRIIb): 93.2 relative (control = 100); He/Con_1a (Ia binding) (FcγRIa [2]): 112 relative (control = 100)
B2 | 109 % of control (GpH7-B3/GpL16-k0 = 100) | 
B3 |  | He/Con_1a (FcγRIa [3]): 116 % of control (GpH7-A5/GpH7-B3/GpL16-k0 = 100)
B4 | 104 % of control (GpH7-B3/GpL16-k0 = 100) | 
B5 |  | He/Con_1a (FcγRIa [3]): 106 % of control (GpH7-A5/GpH7-B3/GpL16-k0 = 100)
B6 |  | He/Con_1a (FcγRIa [3]): 106 % of control (GpH7-A5/GpH7-B3/GpL16-k0 = 100)
B7 | 105 % of control (GpH7-B3/GpL16-k0 = 100) | 
B8 |  | Ia/IIb He_1a/2b (FcγRIa [1]): 2.06; He/Con_2b (IIb binding) (FcγRIIb): 53.9 relative (control = 100); He/Con_1a (Ia binding) (FcγRIa [2]): 111 relative (control = 100)
B9 | 109 % of control (GpH7-B3/GpL16-k0 = 100) | 
B10 | 104 % of control (GpH7-B3/GpL16-k0 = 100) | 
B11 | 101 % of control (GpH7-B3/GpL16-k0 = 100) | 
B12 | 105 % of control (GpH7-B3/GpL16-k0 = 100) | 
B13 | 105 % of control (GpH7-B3/GpL16-k0 = 100) | 
B14 |  | He_1a/2b (Ia/IIb) [4]: 10.5; He/Con_1a (Ia binding) [5]: 79.2 % of control (control = 100)
B15 | 110 % of control (GpH7-B3/GpL16-k0 = 100) | 
B16 |  | He/Con_1a (FcγRIa [3]): 106 % of control (GpH7-A5/GpH7-B3/GpL16-k0 = 100)
B17 | 110 % of control (GpH7-B3/GpL16-k0 = 100) | 
B18 | 110 % of control (GpH7-B3/GpL16-k0 = 100) | 
B19 | 104 % of control (GpH7-B3/GpL16-k0 = 100) | 
B20 | 111 % of control (GpH7-B3/GpL16-k0 = 100) | 
B21 | 105 % of control (GpH7-B3/GpL16-k0 = 100) | 
B22 | 111 % of control (GpH7-B3/GpL16-k0 = 100) | 

Reference: US20180155451A1 (published 2018)
